Among the data in the supplement of paper PMC10567573 are protein stability index values, retold here.

± gives the standard deviation.

The nature of this data set: protein stability index of a GFP-peptide fusion (GPS, HEK-293T) (PSI 1-6); higher = more stable.
Where [1] appears, read: treatment: DMSO, c terminus: a fixed tail appended.
The mark [2] stands for this setting: treatment: MLN4924 1 uM, 8 h, c terminus: a fixed tail appended.
Setting [3] is: treatment: DMSO, c terminus: native.
Setting [4] is: treatment: MLN4924 1 uM, 8 h, c terminus: native.
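Further: 24-mer peptide tiles fused after GFP, lentivirally expressed, FACS-sorted into six equal bins by GFP/DsRed ratio, decoded by Illumina sequencing, PSI is the read-weighted mean bin number.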

On to KDKENKFLCVLMSDWFNFHGHMCI [CLK3], for which the protein stability index came to 3.06 ± 0.31 under setting [1] and 3.08 ± 0.53 under setting [2].
Regarding RLDGQQEPQPFVTSDVYSSDAAFG [MYORG], the protein stability index is, setting by setting: under setting [1], 4.56 ± 0.26; under setting [2], 4.63 ± 0.14.
Taken in the same sequence, the figures for EQMKVYKCEHCRVLFLDHVMYTIH [IKZF1] were 2.37 ± 0.34 and 2.23 ± 0.41.
The matching figures for SLQPRRSIAFRLRLASFDSSGKLI [GMCL1]: 2.62 ± 0.44 and 2.39 ± 0.27.
Take SRVTMILFVLELEWVLSTGQDKQF [WDFY2]: the protein stability index turned out to be 3.1 ± 0.31 under setting [1] and 3.09 ± 0.66 under setting [2].
Take NGSMAMGTVPGQAPRLAVAVPAVT [LYSMD4]: the protein stability index is 3.77 ± 0.43 under setting [1] and 4 ± 0.23 under setting [2].
Turning to LAATTSMAYAKLMLTVMTKYQANI [FANCE], the protein stability index is, setting by setting: under setting [1], 2.92 ± 0.32; under setting [2], 3.26 ± 0.72.
Sequence PVKPVTFSTGIKMGQHISLAPIHK [MNAT1] came in with a protein stability index under setting [1] of 2.96 ± 0.34 and a protein stability index under setting [2] of 2.96 ± 0.32.
QSAQIACSSPSVVASLPLDQSDEG [MAGEA10] yielded a protein stability index under setting [1] of 5.5 ± 0.45 and a protein stability index under setting [2] of 5.236 ± 0.029.
Consider ENAQKKRFNQVLKNLLHAEFLRVQ [VPS39], for which the protein stability index reads like this: under setting [1], 2.73 ± 0.43; under setting [2], 2.29 ± 0.39.
In the case of MRHLSTGTMTGLAIQYALNIAFSE [MATN2], the protein stability index reads like this: under setting [1], 3.08 ± 0.49; under setting [2], 3.33 ± 0.25.
RIGKRPDLLTFVQNLCKGLSQPTT [NEUROD6]: the protein stability index reads like this: under setting [1], 2.3 ± 0.22; under setting [2], 2.17 ± 0.083.
Regarding SFLQNAVLAYVQASPVRTLSPPK [LRRC45], the protein stability index is 2.3 ± 0.32 under setting [3] and 2.1 ± 0.18 under setting [4].
As to DLDAWSILIREAQNQPIDKARKTY [CSTF3], the protein stability index is 2.8 ± 0.34 under setting [1] and 3.04 ± 0.66 under setting [2].
In turn, VKYGLAATVWSSNVGRVHRVAKKL [ALDH8A1] yielded a protein stability index under setting [1] of 2.48 ± 0.33 and a protein stability index under setting [2] of 2.43 ± 0.4.
For KAPVVECSITGDSSRVIAASYDKT [WDR88], the protein stability index came out at 4.56 ± 0.2 under setting [1] and 4.78 ± 0.12 under setting [2].
The sequence SSKVSGVLKKLAQSRRTALATSPI [YJU2B] registered a protein stability index under setting [1] of 2.94 ± 0.22 and a protein stability index under setting [2] of 3 ± 0.26.
Taken in the same sequence, the figures for ESTPVGTVVGLFNVRDRDSGRNGE [PCDHGC5] were 4.92 ± 0.33 and 4.89 ± 0.31.
In the case of YMHVGSCQHLSSSAEELRKARSNS [KCNA3], the protein stability index by setting is: under setting [1], 3.95 ± 0.11; under setting [2], 4.37 ± 0.22.
With GFGDEDTGLELIAEESNPPLQDFP [MIA2], the protein stability index is, setting by setting: under setting [1], 5.4 ± 0.34; under setting [2], 5.23 ± 0.069.
As for VFFIYLYQRWIYRVDPTRVNEFGM [CLPTM1], the protein stability index under setting [1] came out at 2.96 ± 0.49 and the protein stability index under setting [2] stood at 2.69 ± 0.055.
In the case of VGPRETEEKVRDLLWAKFTNSDTP [TOR1AIP2], the protein stability index was found to be 4.14 ± 0.43 under setting [1] and 4.1 ± 0.3 under setting [2].
The matching figures for AAVFKETFKSLSHIDPDVLYPSLN [ALG2]: 2.72 ± 0.17 and 2.71 ± 0.22.
For the sequence SDTIYSYVRPERLSPISHGNTIAL [TCF25], the protein stability index came out at 2.37 ± 0.22 under setting [1] and 2.56 ± 0.31 under setting [2].
Turning to LILESQNWRYATGGWETVFRPVSE [FUT8], the protein stability index amounted to 2.42 ± 0.22 under setting [1] and 2.29 ± 0.11 under setting [2].
NVPNPRIKLIDFGIAHKIEAGNEF [DAPK3]: the protein stability index by setting is: under setting [1], 3.2 ± 0.087; under setting [2], 3.1 ± 0.35.
In turn, CSLYENDCIFDKFECAWNGSDSVI [PPP2R2C] had a protein stability index under setting [1] of 2.21 ± 0.17 and a protein stability index under setting [2] of 2.17 ± 0.15.
Regarding EVTLEANPTSAPGSRLAEFGAAGV [RSAD1], the protein stability index is, setting by setting: under setting [1], 4.21 ± 0.13; under setting [2], 4.25 ± 0.24.
Regarding NTTVIPNGSMAMGTVPGQAPRLAV [LYSMD4], the protein stability index runs as follows: under setting [1], 3.69 ± 0.32; under setting [2], 3.5 ± 0.23.
Taken in the same sequence, the figures for QGLAEKSPLQTIGEEQTQNPYTEL [WDR41] were 5.3 ± 0.14 and 5.29 ± 0.13.
With PDAWCDLSKFDLPEEPSAEDSINN [MYBL2], the protein stability index came to 5.52 ± 0.12 under setting [1] and 5.42 ± 0.31 under setting [2].
As to ALRPTAFSGCLNCSKVSELTERLK [EMID1], the protein stability index under setting [1] came to 2.74 ± 0.37 and the protein stability index under setting [2] worked out at 2.97 ± 0.47.
Taken in the same sequence, the figures for EQEPELSFLKQKEQLEAEAQALRQ [PBXIP1] were 5.42 ± 0.19 and 5.29 ± 0.21.
Consider TELPELLKLYYRRLFPYSQYYRWL [PRIM1], for which the protein stability index by setting is: under setting [1], 2.93 ± 0.79; under setting [2], 2.47 ± 0.67.
Taken in the same sequence, the figures for LDAMNYHLMPFRQHCRQSLASRIR [KLHL14] were 2.48 ± 0.46 and 2.2 ± 0.24.
The sequence RCVSFQARFAEKEELMLVHSLEYI [HDAC6] showed a protein stability index under setting [2] of 2.19 ± 0.3.
As to KEEQRDYVFYLAVGNYRLKEYEKA [FIS1], the protein stability index under setting [1] amounted to 2.39 ± 0.43 and the protein stability index under setting [2] turned out to be 2.23 ± 0.36.
For the sequence NRVWSISQEPDPVQRLQAYTATEQ [TRIM14], the protein stability index is 4.09 ± 0.31 under setting [1] and 3.97 ± 0.31 under setting [2].
For the sequence GRQPALRPHVHKQTEKTTRVRTVL [ISL2], the protein stability index by setting is: under setting [1], 3.66 ± 0.1; under setting [2], 3.88 ± 0.17.
As for EDPSQQFLQQSLERVYSLQHLDPQ [INTS4], the protein stability index was 4.18 ± 0.17 under setting [1] and 4.42 ± 0.23 under setting [2].
The matching figures for MTTCSRQFTSSSSMKGSCGIGGGI [KRT16]: 2.41 ± 0.5 and 2.33 ± 0.16.
In the case of PKMRSKEQILELLVLEQFLTILPT [ZNF449], the protein stability index amounted to 3.07 ± 0.96 under setting [1] and 3.36 ± 0.73 under setting [2].
Taken in the same sequence, the figures for GLPLAASMQEDEQSGRDLQQYQSQ [SEC22B] were 5.34 ± 0.24 and 5.43 ± 0.3.
For LLPNQSHGNQSAGEDQAFGDWLLT [SLC22A15], the protein stability index was determined as 4.14 ± 0.35 under setting [1] and 4.24 ± 0.18 under setting [2].
Consider NKPMLADVVFEIQGTTVPAHRAIL [RHOBTB3], for which the protein stability index reads like this: under setting [1], 2.3 ± 0.27; under setting [2], 2.29 ± 0.2.
With TNGHGGEAAEGKSLGSALKPGEGR [TRIM29], the protein stability index runs as follows: under setting [1], 5.08 ± 0.24; under setting [2], 5.27 ± 0.33.
Take LKTQMKMSLKCLAARAVRANDINY [FEM1B]: the protein stability index runs as follows: under setting [1], 3.02 ± 0.44; under setting [2], 2.67 ± 0.16.
Sequence ALHPERAMDNHSDSEEELAAFCPQ [RETREG3] registered a protein stability index under setting [1] of 5.42 ± 0.12 and a protein stability index under setting [2] of 5.37 ± 0.24.
The sequence PCIRNVTSPTRQHHVEREKDHSSS [BTBD10] displayed a protein stability index under setting [1] of 5.23 ± 0.14 and a protein stability index under setting [2] of 5.02 ± 0.42.
For EISALNGNRINVPMVRKRSVSNST [DLC1], the protein stability index turned out to be 3.5 ± 0.071 under setting [1] and 3.5 ± 0.32 under setting [2].
The matching figures for RKVTDSISKSLELCNEISLSEIKD [DLC1]: 4.136 ± 0.019 and 4.26 ± 0.11.
Taken in the same sequence, the figures for GVLTRKTHADMDGKRTPRGRRGWK [PSD2] were 4.47 ± 0.29 and 4.53 ± 0.29.
For LDVWLSGGNDLCVWNRKLDLLCKT [WDR41], the protein stability index turned out to be 2.28 ± 0.35 under setting [1] and 2.19 ± 0.31 under setting [2].
Regarding FFWHLTLPERRGTCADRDNLTRRF [CASP6], the protein stability index reads like this: under setting [1], 2.61 ± 0.36; under setting [2], 2.09 ± 0.18.
On to NLKFITDPFVCRLRHLSPTPSEEH [OR4A15], for which the protein stability index is, setting by setting: under setting [1], 2.54 ± 0.11; under setting [2], 3 ± 0.2.
The matching figures for GLKPGPEDGPGKEEAPELDEAELD [SERTAD1]: 5.67 ± 0.34 and 5.83 ± 0.064.
For VLLKTADPRYELPSRKYISTKAIP [ZBED1], the protein stability index reads like this: under setting [1], 2.19 ± 0.37; under setting [2], 2.34 ± 0.62.
Regarding LFSIAPLIYGSMEMFPAAQQLYRH [JAGN1], the protein stability index amounted to 2.55 ± 0.41 under setting [1] and 2.6 ± 0.57 under setting [2].
In the case of FKTGNSTATCTTNNNPNSCVNIKK [KCNA3], the protein stability index under setting [1] was 4.53 ± 0.15 and the protein stability index under setting [2] was 4.58 ± 0.36.
In the case of DRDKRDFVSAGAAAGVAAAFGAPI [CLCN6], the protein stability index was found to be 4.12 ± 0.096 under setting [1] and 4.24 ± 0.19 under setting [2].
As for HEEFFPAFQAFTNDLLEILEIDDL [CEP70], the protein stability index came to 3.48 ± 0.21 under setting [1] and 3.43 ± 0.37 under setting [2].
LDGHTISDLSRSSRGELIPISPST [MYBL2]: the protein stability index runs as follows: under setting [1], 4.14 ± 0.13; under setting [2], 4.33 ± 0.3.
The sequence RTMRLWNIEEIDEIPLVIKYKKAV [WDR88] had a protein stability index under setting [1] of 2.3 ± 0.4 and a protein stability index under setting [2] of 2.26 ± 0.31.
Taken in the same sequence, the figures for VDQMNRIVEVLGIPPAAMLDQAPK [DYRK1B] were 3.62 ± 0.25 and 3.52 ± 0.15.
Regarding DGAAYIGNFDWVGNDFTQNAGTGL [PLD5], the protein stability index is 3.3 ± 0.49 under setting [1] and 3.44 ± 0.14 under setting [2].
As for TPYPNLYPDQSPSEDWTMEERFRP [CLCN6], the protein stability index amounted to 3.85 ± 0.26 under setting [1] and 4.07 ± 0.15 under setting [2].
DGVKESTESSNTTIEDEDVKARKQ [CAMK2D] yielded a protein stability index under setting [1] of 5.59 ± 0.15 and a protein stability index under setting [2] of 5.74 ± 0.09.
Turning to YQIYDVSGESNSAVSTEDLKECLK [LARP4], the protein stability index runs as follows: under setting [1], 4.2 ± 0.18; under setting [2], 4.2 ± 0.19.
On to TATCTTNNNPNSCVNIKKIFTDV [KCNA3], for which the protein stability index worked out at 4.08 ± 0.24 under setting [3] and 3.97 ± 0.11 under setting [4].
With RALVRQFGQQDWKFLASHFPNRTD [MYBL2], the protein stability index under setting [1] came to 3.09 ± 0.41 and the protein stability index under setting [2] is 2.93 ± 0.19.
Consider GVLEAPDTQVNPVGSVSVDCGPSR [FBXO34], for which the protein stability index by setting is: under setting [1], 5.03 ± 0.31; under setting [2], 4.89 ± 0.6.
FVLSLVKKHYRLQFYMFGWTHVTL [CDS2] gave a protein stability index under setting [1] of 2.99 ± 0.57 and a protein stability index under setting [2] of 2.99 ± 0.67.
